Data as given in article PMC4381330, “Identification of a novel selective agonist of PPARγ with no promotion of adipogenesis and less inhibition of osteoblastogenesis” (Scientific Reports, 2015).

Experiments:
[1] = target: GST-fused human PPARγ-LBD (human); experiment: AlphaScreen or HTRF; LanthaScreen TR-FRET coregulator peptide assay; serial concentrations of F12016 with GST-PPARγ-LBD, terbium-labeled anti-GST antibody and fluorescein-labeled peptide, 4 h; coactivator data as percent of the maximum of rosiglitazone
[2] = target: GST-fused human PPARγ-LBD (human); experiment: AlphaScreen or HTRF; LanthaScreen TR-FRET coregulator peptide assay; serial concentrations of rosiglitazone with GST-PPARγ-LBD, terbium-labeled anti-GST antibody and fluorescein-labeled peptide, 4 h; 520 nm/495 nm ratio

Row | efficacy (maximum recruitment, % of rosiglitazone), with F12016 [1] [%] | efficacy (maximum recruitment, % of rosiglitazone), with rosiglitazone [2] [%] | Substance
1 | 10 | 100 | CREB-binding protein (CBP) peptide, fluorescein-labeled
2 | 23 | 100 | steroid receptor coactivator (SRC) 3 peptide, fluorescein-labeled
3 | 17 | 100 | transcriptional intermediary factor 2 (TIF2) peptide, fluorescein-labeled
4 | 26 | 100 | steroid receptor coactivator (SRC) 1 peptide, fluorescein-labeled
